According to patent US20150266963A1 (ARGEN X B V, published 2015):
Positions count from the first letter of the chain named.

How the values were obtained:
Assay in all cases: ELISA; chimera captured by anti-Flag mAb; anti-human-Fc-HRP
[1] = biological target: T1, human-mouse CD70 chimera chim-2.3 (Flag-TNC-CD70)
T1 construct: also called chimera 2.3
T1 chain: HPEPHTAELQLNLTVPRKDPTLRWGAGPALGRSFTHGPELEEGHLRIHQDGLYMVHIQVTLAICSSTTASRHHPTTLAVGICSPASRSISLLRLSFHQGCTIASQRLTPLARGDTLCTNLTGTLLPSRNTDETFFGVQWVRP
Procedure: (§1) A Maxisorb (Nunc) microtiter plate was coated with 3.5 μg/ml mouse M2 anti-Flag mAb (Sigma Aldrich, F3165) and the different chimeras were captured. A dilution series of the CD70 mAbs to be tested was applied starting at a concentration of 10 μg/ml and making 3-fold dilutions. After 2 hours, binding was detected using anti-human-Fc-HRP at a 16000-fold dilution. Staining was done with ABTS and OD at 405 nm was measured. As a positive control, CD27-Fc was applied which is able to bind to both human and mouse CD70 with good affinity as well as to the chimeric human-mouse CD70 variants.

[2] = biological target: T2, human-mouse CD70 chimera chim-2.1 (Flag-TNC-CD70) (Soluble homotrimer held by the TNC domain; one CD70 ECD chain is given.)
T2 construct: also called chimera 2.1; not shown: N-terminal Flag tag, TNC (tenascin-C) trimerisation domain and any linkers of the Flag-TNC-CD70 construct
T2 chain: T1 chain with E41D, E42K, H44Q, Q49R, L52I
Procedure: as §1

[3] = biological target: T3, human-mouse CD70 chimera chim-2.2 (Flag-TNC-CD70)
T3 construct: also called chimera 2.2; not shown: N-terminal Flag tag, TNC trimerisation domain and any linkers of the Flag-TNC-CD70 construct
T3 chain: T1 chain with Q49R, L52I
Procedure: as §1

[4] = biological target: T4, human-mouse CD70 chimera chim-2.4 (Flag-TNC-CD70)
T4 construct: also called chimera 2.4
T4 chain: T1 chain with M54R, V55L
Procedure: as §1

[5] = biological target: T5, human-mouse CD70 chimera chim-1 (Flag-TNC-CD70) (Homo sapiens (Human), UniProt P32970 58-193, Soluble homotrimer held by the TNC domain; one CD70 ECD chain is given.)
T5 construct: also called chimera 1; not shown: N-terminal Flag tag, TNC (tenascin-C) trimerisation domain and any linkers of the Flag-TNC-CD70 construct
T5 chain: T1 chain with T35L, E41D, E42K, H44Q, Q49R, L52I
Procedure: as §1

B1: ARGX-110 (non-fucosylated 41D12 human IgG1) (antibody, V domains shown)
VH: EVQLVESGGGLVQPGGSLRLSCAASGFTFSVYYMNWVRQAPGKGLEWVSDINNEGGTTYYADSVKGRFTISRDNSKNSLYLQMNSLRAEDTAVYYCARDAGYSNHVPIFDSWGQGTLVTVSS
VL: QAVVTQEPSLTVSPGGTVTLTCGLKSGSVTSDNFPTWYQQTPGQAPRLLIYNTNTRHSGVPDRFSGSILGNKAALTITGAQADDEAEYFCALFISNPSVEFGGGTQLTVLG
notes: also called 41D12 (ARGX-110)
**Q.** Which EC50 [1] does the source give for B1 here?
**A.** The EC50 was 0.015 µg/mL.

**Q.** And the EC50 [2]?
**A.** The EC50 was 0.015 µg/mL.

**Q.** What about the EC50 [3] of the same binder?
**A.** Its EC50 is 0.016 µg/mL.

**Q.** And the EC50 [4]?
**A.** The EC50 was 0.014 µg/mL.

**Q.** And the EC50 [5]?
**A.** The EC50 was 0.027 µg/mL.
